Reference: patent publication US6843989 (Seagen, dated 2005)

How the values were obtained:
[1] = target: T1, CD40 expressed on the surface of B cells (human, UniProt P25942 21-277); assay: flow cytometry; soluble CD40L titrated on Ramos B cells
[2] = target: T1, CD40 expressed on the surface of B cells; assay: cell-based or functional assay

T1 sequence (P25942 21-277): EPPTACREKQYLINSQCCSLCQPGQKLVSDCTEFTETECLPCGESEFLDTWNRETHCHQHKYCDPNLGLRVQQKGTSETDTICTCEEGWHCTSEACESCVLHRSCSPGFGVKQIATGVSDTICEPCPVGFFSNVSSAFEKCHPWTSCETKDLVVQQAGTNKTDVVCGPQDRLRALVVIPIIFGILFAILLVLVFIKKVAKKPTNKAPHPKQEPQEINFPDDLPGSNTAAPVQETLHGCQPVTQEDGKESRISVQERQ

Molecule: recombinant human soluble CD40 ligand (CD154-muCD8), FITC-labeled (from UniProt P29965 47-261; P27548 47-260)
- saturation concentration [1]: 10 µg/mL

B1: anti-CD40 mAb G28-5 (antibody, V domains shown)
VH: DIQLQQSGPGLVKPSQSLSLTCSVTGYSITTNYNWNWIRQFPGNKLEWMGYIRYDGTSEYTPSLKNRVSITRDTSMNQFFLRLTSVTPEDTATYYCARLDYWGQGTSVTVSS
VL: DAVMTQNPLSLPVSLGDEASISCRSSQSLENSNGNTFLNWFFQKPGQSPQLLIYRVSNRFSGVPDRFSGSGSGTDFTLKISRVEAEDLGVYFCLQVTHVPYTFGGGTTLEIK
- B cell proliferation (3H-thymidine incorporation) with CD40L+ T cell titration and 30 ng/ml mAb, over the level with mAb alone [2]: 1.3 fold
- activation (proliferation) of primary human peripheral blood B cells with CD40L+ stimulator cells at 4:1 (B:T), against mAb alone [2]: 2 fold

B2: monoclonal antibody S2C6 (antibody, V domains shown)
VH: EVQLQQSGPDLVKPGASVKISCKASGYSFTGYYIHWVKQSHGKSLEWIGRVIPNNGGTSYNQKFKGKAILTVDKSSSTAYMELRSLTSEDSAVYYCAREGIYWWGHGTTLTVSS
VL: DVVVTQTPLSLPVSLGAQASISCRSSQSLVHSNGNTFLHWYLQKPGQSPKLLIYTVSNRFSGVPDRFSGSGSGTDFTLKISRVEAEDLGVYFCSQTTHVPWTFGGGTKLEIQ
- B cell proliferation (3H-thymidine incorporation) with CD40L+ T cell titration and 30 ng/ml mAb, over mAb-only stimulation [2]: 3 fold
- B cell proliferation of primary human peripheral blood B cells with CD40L+ stimulator cells at 4:1 (B:T), against mAb alone [2]: 16.2 fold
